Test results reported in patent US20220396632A1 (VERSEAU THERAPEUTICS, published 2022).
Residue numbers refer to the chain shown, from its start. Non-standard residues stand in square brackets, D forms with d. No end group written: not given here. *: point of attachment. Biotin = O=C1N[C@H]2[C@H](CS[C@H]2CCCCC(=O)*)N1; sY = N[C@@H](Cc1ccc(OS(=O)(=O)O)cc1)C(=O)O

T1: SulfoTyr C4 peptide (not fully specified; Y4, Y7 and Y9 sulfated (SO3); C-terminal biotin)
T1 construct: also called C4 alpha chain peptide; human sulfotyrosinylated C4 peptide
T1 peptide: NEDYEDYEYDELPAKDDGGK

T2: Sulfotyr fibrinogen γ peptide (not fully specified; Y8 and Y12 sulfated (SO3); C-terminal biotin)
T2 construct: also called Fibrinogen gamma peptide; human sulfotyrosinylated fibrinogen peptide
T2 peptide: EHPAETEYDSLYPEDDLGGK

T3: Human fibrinogen protein (ThermoFisher, RP-43142) (human, UniProt P02671 20-629; P02675 31-491; P02679 27-453, limits assumed, natural sulfotyrosines)
T3 construct: mature; Native dimer with 3 pairs of non-identical chains; also called gamma-fibrinogen; γ fibrinogen protein
T3 sequence (looked up) 1: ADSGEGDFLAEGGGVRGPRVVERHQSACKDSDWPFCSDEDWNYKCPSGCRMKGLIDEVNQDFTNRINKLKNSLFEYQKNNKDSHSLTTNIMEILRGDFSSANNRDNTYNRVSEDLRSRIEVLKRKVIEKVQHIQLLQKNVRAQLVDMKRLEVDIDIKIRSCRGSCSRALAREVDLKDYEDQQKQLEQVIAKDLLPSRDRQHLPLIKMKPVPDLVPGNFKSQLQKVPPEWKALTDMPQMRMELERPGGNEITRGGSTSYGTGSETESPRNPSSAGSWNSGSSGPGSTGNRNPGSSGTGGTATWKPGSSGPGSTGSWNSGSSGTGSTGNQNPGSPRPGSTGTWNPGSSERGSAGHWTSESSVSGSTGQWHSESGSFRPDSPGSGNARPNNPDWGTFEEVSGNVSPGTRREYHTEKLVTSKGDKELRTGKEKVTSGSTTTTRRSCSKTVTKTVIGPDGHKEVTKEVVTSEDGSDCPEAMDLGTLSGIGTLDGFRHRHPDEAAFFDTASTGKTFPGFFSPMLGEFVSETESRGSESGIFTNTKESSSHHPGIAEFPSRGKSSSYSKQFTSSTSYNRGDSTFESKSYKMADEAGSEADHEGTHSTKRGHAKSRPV
T3 sequence (looked up) 2: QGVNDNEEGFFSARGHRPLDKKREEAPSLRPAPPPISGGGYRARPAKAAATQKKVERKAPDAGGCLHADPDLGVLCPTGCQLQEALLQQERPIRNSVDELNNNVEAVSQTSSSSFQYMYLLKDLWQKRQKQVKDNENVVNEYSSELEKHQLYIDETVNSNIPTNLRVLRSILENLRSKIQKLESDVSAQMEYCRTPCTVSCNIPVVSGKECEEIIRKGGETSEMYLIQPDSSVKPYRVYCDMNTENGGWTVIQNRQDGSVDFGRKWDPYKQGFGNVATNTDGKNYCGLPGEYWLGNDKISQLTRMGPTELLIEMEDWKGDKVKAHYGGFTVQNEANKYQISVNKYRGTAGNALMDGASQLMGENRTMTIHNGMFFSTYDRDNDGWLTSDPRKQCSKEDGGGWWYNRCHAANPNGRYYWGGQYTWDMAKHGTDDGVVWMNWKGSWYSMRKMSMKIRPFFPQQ
T3 sequence (looked up) 3: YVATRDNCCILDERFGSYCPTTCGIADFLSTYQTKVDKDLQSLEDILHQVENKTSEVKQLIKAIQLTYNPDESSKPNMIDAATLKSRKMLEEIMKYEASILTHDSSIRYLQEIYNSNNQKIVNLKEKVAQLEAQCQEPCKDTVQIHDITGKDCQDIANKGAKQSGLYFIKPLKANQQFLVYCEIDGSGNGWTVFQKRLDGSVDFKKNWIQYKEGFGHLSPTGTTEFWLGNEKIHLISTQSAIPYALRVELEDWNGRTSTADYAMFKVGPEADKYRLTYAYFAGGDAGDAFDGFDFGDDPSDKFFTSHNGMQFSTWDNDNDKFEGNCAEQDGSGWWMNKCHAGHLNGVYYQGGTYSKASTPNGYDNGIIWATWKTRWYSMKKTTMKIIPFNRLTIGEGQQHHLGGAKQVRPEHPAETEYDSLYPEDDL

T4: SulfoCCK biotin peptide (human)
T4 construct: also called sulfotyrosine CCK peptide
T4 peptide: SHRISDRD[sY]MGWMDFGGK(Biotin)

T5: Sulfotyrosine CCR2b biotin peptide (human)
T5 construct: also called CCR2b peptide
T5 peptide: TTFFD[sY]D[sY]GAPSHGGK(Biotin)

T6: Scrambled Y42,52,63(SO3) PSGL-1(42-62) biotin peptide (sulfotyrosine at peptide positions 1, 11 and 22; C-terminal Lys-biotin)
T6 peptide: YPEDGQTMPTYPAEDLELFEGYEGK

T7: Biotin PSGL-1(42-62) peptide, unmodified (human, C-terminal Lys-biotin)
T7 construct: Residues 42-62 followed by GGGK-biotin; also called WT; wild-type
T7 peptide: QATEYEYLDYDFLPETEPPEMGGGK

T8: Biotin Y46,48,51(SO3) PSGL-1(42-62) peptide (human, sulfotyrosine at Y46, Y48 and Y51; C-terminal Lys-biotin)
T8 construct: also called fully sulfated N-terminal PSGL-1 peptide
T8 peptide: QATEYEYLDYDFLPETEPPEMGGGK

T9: PSGL-1 endogenously expressed on HL-60 cells (UniProt Q14242 42-412)
T9 construct: whole, on cells
T9 sequence (looked up): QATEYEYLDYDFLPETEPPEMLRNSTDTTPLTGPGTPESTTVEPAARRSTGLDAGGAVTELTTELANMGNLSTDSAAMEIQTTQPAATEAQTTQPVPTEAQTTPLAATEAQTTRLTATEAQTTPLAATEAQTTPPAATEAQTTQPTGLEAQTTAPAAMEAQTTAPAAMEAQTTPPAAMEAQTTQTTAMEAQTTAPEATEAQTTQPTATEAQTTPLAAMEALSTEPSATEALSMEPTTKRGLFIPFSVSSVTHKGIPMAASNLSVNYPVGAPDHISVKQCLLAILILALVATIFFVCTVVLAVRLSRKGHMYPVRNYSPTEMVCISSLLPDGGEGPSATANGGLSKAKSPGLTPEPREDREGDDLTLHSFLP

B1: 02H08 (antibody, IgG4, V domains shown)
VH: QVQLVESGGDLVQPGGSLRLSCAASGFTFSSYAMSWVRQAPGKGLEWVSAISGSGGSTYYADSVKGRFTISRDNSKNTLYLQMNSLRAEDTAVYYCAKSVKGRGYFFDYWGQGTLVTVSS
VL: QSVLTQPPSVSAAPGQKVTISCSGSYFNIGNHYVSWYHQLPGTAPKLLIYDNNLRPSGIPDRFSASKSGTSATLGITGLQTGDEGDYYCGTWDSSLSGRVFGGGTKLTVL
B2: 03B01 (antibody, IgG4, V domains shown)
VH: QMQLVQSGAEVKKPGASVKVSCRASGYRFSTYAISWVRQAPGQGLEWIGWISTHHGNTKYAQKFQDRVTMTADASTSIAYMELRSLRSDDTAVYYCAAAIGNYWGQGTLVTVSS
VL: EIVLTQSPAILSVSPGERASLSCRASQSVSSKLAWYQQKPGQAPRLLIYGASTRATGIPPRFSGSGSGTDFTLTISSLEPEDFAVYYCQQRSNWPLTFGGGTKVEIK
B3: 06B02 (antibody, IgG4, V domains shown)
VH: QVQLVESGPGLVKPSETLSLTCTVSGVSVSSYYWTWVRQSPGKGLEWIGHVHHSGISNYNPSLKSRVVMSVDTSKNYFSLKLRSVTAADTAVYYCARGGPRISPTNWGQGTLVTVSS
VL: QPVLTQPPSVSKALRQTATLTCTGNSNNVGYQGATWLRQHQGHPPRLLSYRNNNRPSGISERFSASRSGNTATLTITGLQPDDEADYYCAAWDSSLSAWVFGGGTKLTVL
B4: 19L04.004 (antibody, IgG4, V domains shown)
VH: QIQLVQSGAEVKKPGASVKVSCKASGYTFTTYGMSWVRQAPGQGLKWMGWINTYSGVPTYADDFKGRFTFTLDTSISTAYMELSRLRSDDTAVYFCARHYYGSHYFDYWGQGTLVTVSS
VL: DIVMTQSPDSLAVSLGERATIRCKSSQSLLSSSNQKNYLAWYQQKPGQPPKLLVYFASTRESGVPDRFSGSGSGTDFTLTISSLQAEDVAVYYCQQHYFSPLTFGQGTKLEIK
notes: Humanised
B5: 19L04.008 (antibody, IgG4, V domains shown)
VH: B4 VH
VL: B4 VL with I21L, D66V, Y93F
notes: Humanised
B6: 19L04.006 (antibody, IgG4, V domains shown)
VH: QIQLVQSGSELKKPGASVKVSCKASGYTFTTYGMSWVRQAPGQGLKWMGWINTYSGVPTYADDFKGRFVFSLDTSVSTAYLQISSLKAEDTAVYFCARHYYGSHYFDYWGQGTLVTVSS
VL: B4 VL with I21L, D66V, Y93F
notes: Humanised

Columns and labels:
[1] = molecular target: T1, SulfoTyr C4 peptide; experiment: ELISA, 50 nM mAb
Description: (§1) Recombinant PSGL-1-hFc1 chimera protein consisting of PSGL-1's extracellular domain (ECD) served as a positive control. […] Primary antibody was added (25 ul per well) in duplicate at 50 nM in assay buffer (blocking buffer containing 0.05% Tween®20) into test and control (just blocked) wells and the plate incubated for 45 min at 37° C.

[2] = molecular target: T2, Sulfotyr fibrinogen γ peptide; experiment: ELISA, 50 nM mAb
Description: as §1

[3] = molecular target: T10, Human complement C4 protein (Millipore Sigma, Cat. 204886) (human, UniProt P0C0L4 20-675; P0C0L4 680-1446; P0C0L4 1454-1744, limits assumed, natural sulfotyrosines); experiment: ELISA, 50 nM mAb
T10 construct: mature
Description: as §1

[4] = molecular target: T3, Human fibrinogen protein (ThermoFisher, …); experiment: ELISA, 50 nM mAb
Description: as §1

[5] = molecular target: T4, SulfoCCK biotin peptide; experiment: ELISA, 50 nM mAb
Description: as §1

[6] = molecular target: T5, Sulfotyrosine CCR2b biotin peptide; experiment: ELISA, 50 nM mAb
Description: as §1

[7] = molecular target: T11, Cynomolgus PSGL-1(ECD)-hFc1 (cynomolgus macaque); experiment: ELISA, plate cyno PSGL-1(ECD)-Fc
T11 construct: also called Cyno PSGL1-Fc; Cyno PSGL-1(ECD)-Fc
Description: Antibody binding to plate-immobilized cyno PSGL-1(ECD) was determined either at one concentration (20 nM) or by generating full antibody binding curves (0.003-200 nM). A typical ELISA was performed by overnight coating at 4° C. with 3 ug/mL/25 ul per well of recombinant cyno PSGL-1(ECD) protein in PBS, pH 7.4, in high binding half-well plates (Corning Cat. #3690). […] Anti-PSGL-1 IgG in assay buffer (blocking buffer containing 0.05% tween 20) was added into test and control wells (20 nM/25 ul/well) and the plate incubated for 45 min at 37° C. […] The plate was incubated for 45 min at 37° C., and mAb bound to plate-immobilized target determined at A450 nm using HRP substrate (3,3′,5,5′-tetramethylbenzidine (TMB)). For each antibody, duplicate values were averaged and assay background subtracted.

[8] = molecular target: T6, Scrambled Y42,52,63(SO3) PSGL-1(42-62) …; experiment: ELISA, immobilized biotin peptide
How it was run: (§2)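 In this ELISA, half-well high binding plates (Corning Cat. #3690) received 3 ug/mL/25 ul per well of biotin-tagged PSGL-1 peptides covering residues 42 to 62, diluted in PBS, pH 7.4, and coated overnight at 4° C. Duplicate readings for each antibody were averaged and the average assay background was subtracted. PSGL-1 protein or peptide was the positive control.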

[9] = molecular target: T7, Biotin PSGL-1(42-62) peptide, unmodified; experiment: ELISA, immobilized biotin peptide
How it was run: as §2

[10] = molecular target: T8, Biotin Y46,48,51(SO3) PSGL-1(42-62) …; experiment: ELISA, immobilized biotin peptide
How it was run: as §2

[11] = molecular target: T9, PSGL-1 endogenously expressed on HL-60 …; experiment: flow cytometry on HL-60 cells
Description: (§3) A typical flow cytometry assay was performed by resuspending HL-60 cells in FACS buffer (5% FBS and 0.05% Sodium Azide in PBS, pH 7.2) on ice, pelleting cells by centrifugation at 500×g for 3 min, washing cells with FACS buffer, and then blocking Fc receptors on the cells with Fc block (human TruStain FcX™, BioLegend Cat. #422302) on ice for 10 min. After washing, 50,000 cells/50 ul in FACS buffer was added to each well of a 96-well round bottomed plate (Costar, Cat. #3797), and 50 ul of serially diluted (0.06 nM-1.0 uM) test or isotype control antibody was added into duplicate wells. The plate was covered and incubated on ice for 1 h. After washing, Phycoerythrin (PE) conjugated anti-human IgG secondary antibody (Abcam; Cat. #ab99825) was added to each well and the plate incubated in the dark on ice for 30 min. After washing, the cells were fixed (1% paraformaldhyde).

[12] = molecular target: T9, PSGL-1 endogenously expressed on HL-60 …; experiment: flow cytometry on HL-60 cells; against parent 19L04
Description: as §3

T10 sequence (P0C0L4 20-675 limits assumed, form in doubt, chain 1 of 3): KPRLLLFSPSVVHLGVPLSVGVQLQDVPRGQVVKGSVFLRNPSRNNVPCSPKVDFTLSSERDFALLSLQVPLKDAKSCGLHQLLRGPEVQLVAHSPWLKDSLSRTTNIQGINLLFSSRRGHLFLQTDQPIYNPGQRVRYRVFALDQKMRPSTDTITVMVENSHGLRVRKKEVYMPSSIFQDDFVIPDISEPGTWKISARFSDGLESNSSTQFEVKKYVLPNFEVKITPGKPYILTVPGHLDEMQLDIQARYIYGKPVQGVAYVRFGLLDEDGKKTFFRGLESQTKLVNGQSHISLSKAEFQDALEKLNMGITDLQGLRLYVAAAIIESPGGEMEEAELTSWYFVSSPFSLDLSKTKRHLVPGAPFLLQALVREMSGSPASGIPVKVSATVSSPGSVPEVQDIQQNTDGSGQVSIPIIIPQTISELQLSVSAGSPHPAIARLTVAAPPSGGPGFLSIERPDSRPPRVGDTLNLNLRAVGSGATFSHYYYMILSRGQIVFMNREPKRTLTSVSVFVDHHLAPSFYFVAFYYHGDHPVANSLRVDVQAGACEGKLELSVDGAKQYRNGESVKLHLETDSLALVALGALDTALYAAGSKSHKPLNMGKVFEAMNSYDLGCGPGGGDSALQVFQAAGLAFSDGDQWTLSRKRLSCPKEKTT
T10 sequence (P0C0L4 680-1446 limits assumed, form in doubt, chain 2 of 3): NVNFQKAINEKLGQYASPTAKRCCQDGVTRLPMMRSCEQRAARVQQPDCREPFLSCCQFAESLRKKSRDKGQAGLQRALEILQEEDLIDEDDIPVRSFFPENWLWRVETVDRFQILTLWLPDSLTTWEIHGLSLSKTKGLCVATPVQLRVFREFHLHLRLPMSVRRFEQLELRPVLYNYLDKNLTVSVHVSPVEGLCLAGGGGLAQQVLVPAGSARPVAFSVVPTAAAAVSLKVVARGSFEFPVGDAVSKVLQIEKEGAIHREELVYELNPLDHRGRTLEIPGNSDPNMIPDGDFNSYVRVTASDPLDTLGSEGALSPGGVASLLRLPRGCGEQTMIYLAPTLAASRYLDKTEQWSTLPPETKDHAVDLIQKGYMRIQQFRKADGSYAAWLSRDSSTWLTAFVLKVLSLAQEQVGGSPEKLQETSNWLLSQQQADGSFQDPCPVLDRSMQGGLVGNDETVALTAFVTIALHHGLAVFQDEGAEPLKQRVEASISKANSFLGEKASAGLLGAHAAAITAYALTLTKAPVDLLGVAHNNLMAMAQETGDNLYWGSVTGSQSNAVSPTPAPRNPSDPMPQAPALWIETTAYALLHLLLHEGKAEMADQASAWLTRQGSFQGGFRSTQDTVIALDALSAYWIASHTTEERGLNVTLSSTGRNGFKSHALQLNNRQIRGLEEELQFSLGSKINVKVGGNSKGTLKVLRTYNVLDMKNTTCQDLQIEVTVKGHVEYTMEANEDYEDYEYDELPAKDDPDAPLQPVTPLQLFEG
T10 sequence (P0C0L4 1454-1744 limits assumed, form in doubt, chain 3 of 3): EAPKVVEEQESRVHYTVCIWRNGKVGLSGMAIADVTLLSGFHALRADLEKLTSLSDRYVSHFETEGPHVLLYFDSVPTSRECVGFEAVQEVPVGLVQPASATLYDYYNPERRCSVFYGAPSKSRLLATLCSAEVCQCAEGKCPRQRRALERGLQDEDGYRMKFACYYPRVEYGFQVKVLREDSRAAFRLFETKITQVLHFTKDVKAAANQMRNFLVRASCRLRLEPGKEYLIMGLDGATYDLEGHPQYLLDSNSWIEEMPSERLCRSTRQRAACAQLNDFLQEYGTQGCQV

Binder | binding normalized to PSGL-1 [1] | binding normalized to PSGL-1 [2] | binding normalized to PSGL-1 [3] | binding normalized to PSGL-1 [4] | binding normalized to PSGL-1 [5] | binding normalized to PSGL-1 [6] | binding result [7] | A450nm, 20 nM mAb [8] [A450nm] | binding result [8] | EC50 [9] [nM] | A450nm, 20 nM mAb [10] [A450nm] | EC50 [10] [nM] | A450nm, 20 nM mAb [9] [A450nm] | EC50 [11] [nM] | HL-60 EC50 (normalized) [12] [fold]
B1 | 1.34 | 1.34 | 0.94 | 0.11 | 1.27 | 1.32 | no binding (tested: 20 nM) | 0.03 | no binding (tested: 20 nM) | > 500 | 2.45 | 1.6 |  |  | 
B2 | 1.15 | 1.23 | 1.1 | 0.11 | 1.14 | 1.1 | no binding (tested: 20 nM) | 0.04 | no binding (tested: 20 nM) | ~500 | 2.62 | 0.04 |  |  | 
B3 | 0.97 | 1.22 | 1.09 | 0.03 | 0.78 | 0.61 | no binding (tested: 20 nM) |  | no binding (tested: 20 nM) |  | 2.57 |  | 0.37 |  | 
B4 |  |  |  |  |  |  |  |  |  |  |  |  |  | 8.9 | 4.5
B5 |  |  |  |  |  |  |  |  |  |  |  |  |  | 2.9 | 1.5
B6 |  |  |  |  |  |  |  |  |  |  |  |  |  | 3.5 | 1.8
